Laboratory results taken from patent US6165732A, “Method for identifying apoptosis modulating compounds” (Washington University, priority 1998, dated 2000).

Legend:
Bcl-2 channel = biological target: T1, Bcl-2 channel (Mus musculus, UniProt P10417); experiment: Effect of Bax death agonist peptide on Bcl-2 channel in planar lipid bilayer; format: biochemical, murine; conditions: for effect on conductance pattern of Bcl-2 channel: 20 to 100 μM; for effect on ion selectivity of Bcl-2 channel: peptide added to Bcl-2 channel
T1 construct: proteoliposomes fused to planar lipid bilayer
T1 sequence (P10417 1-218): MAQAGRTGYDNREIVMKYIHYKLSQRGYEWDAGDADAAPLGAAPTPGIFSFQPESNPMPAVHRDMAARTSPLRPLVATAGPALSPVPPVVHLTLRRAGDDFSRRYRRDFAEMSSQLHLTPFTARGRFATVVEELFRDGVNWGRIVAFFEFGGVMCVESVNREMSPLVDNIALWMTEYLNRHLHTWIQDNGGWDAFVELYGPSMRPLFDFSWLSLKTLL
Source text: The Bax and Bcl-2 polypeptides used in the ion channel studies reported herein were recombinant murine Bcl-2 and Bax polypeptides lacking the C-terminal signal-anchor membrane targeting sequence (Bcl-2ΔC21, amino acids 1-218 of SEQ ID NO:9 and BaxΔC19, amino acids 1-173 of SEQ ID NO:6). These deletion derivatives, also referred to herein as BaxΔTM and Bcl-2ΔTM, were used to avoid any interference of the C-terminal signal-anchor membrane targeting sequence with the capacity of internal α helices to mediate insertion into artificial lipid bilayers.
Proteoliposomes for fusion with a planar lipid bilayer were prepared as follows. Purified protein (0.25 μg) was added to […] lipid (Azolectin) in 20 μl of KCl buffer (150 mM KCl, 10 mM HEPES, pH 7.0). This mixture was placed into a dialysis bag with a molecular weight cutoff of 12 KDa. After 16 hours dialysis in 3000 volumes of 150 mM KCl (10 mM HEPES, pH 7.0) the proteoliposome suspension was removed and placed on ice for immediate use. The bilayer was set up with a 450:150 cis to trans KCl gradient to identify the ion selectivity of the initial currents. Fusion was initiated by adding 5-20 μl of lipid vesicles (only 5-20 ng of protein) to the cis bilayer chamber with mixing. Non-fused proteoliposomes were removed from the compartments and solutions exchanged as described above.
Control bilayers containing Bcl-2 or Bax channels were prepared by fusion of unilamellar proteoliposomes with incorporated Bcl-2ΔTM or BaxΔTM with an established planar bilayer as described in Example 4. Test bilayers containing Bcl-2 channels were prepared in the same manner to which an 11 mer Bax peptide (SEQ ID NO:1) with known death agonist activity was added at 20, 50 or 100 μM. A voltage of 80 mV was applied to each control and test channel and its conductance measured for a period of 12 to 16 seconds and the frequency that each channel was measured at a particular conductance level (pA) was calculated. The data, representing about 500,000 measurements, are shown as histograms in FIGS. 8A-8E.
Bilayers containing Bcl-2 and Bax channels were prepared as described in Example 4 with 150 mM KCl on both sides of the bilayer. The death agonist peptide was added to the cis side of a Bcl-2 channel at 150 μM. The voltage dependence of the currents and the ion selectivity for the Bcl-2 channel in the absence and presence of the death agonist peptide, as well as the Bax channel were determined and the data are shown in FIGS. 9A-C.

cell death = conditions: known activity; cited from earlier work
[1] = Channel forming activity of peptide in planar lipid bilayers which lack BCL-2 related proteins; format: biochemical; conditions: bilayers lacking BCL-2 related proteins
Bax channel = experiment: Effect of Bax 11-mer peptide on Bax channel in planar lipid bilayer; format: biochemical, murine; conditions: 20 to 100 μM

Question: Which “single remaining conductance peak of Bcl-2 channel” value (Bcl-2 channel; 100 μM peptide, 80 mV) does the source give for ECLKRIGDELD [Bax 11mer peptide] here?
Answer: about 65 pA

Question: What about the “pK/pCl of Bcl-2 channel with peptide” value (Bcl-2 channel; 150 μM peptide, cis side) of the same sequence?
Answer: 0.26±0.05

Question: What about the “slope of Bcl-2 channel current at negative potentials” value (Bcl-2 channel; 150 μM peptide, symmetrical 150 mM KCl) of the same sequence?
Answer: linear and intermediate between that of Bcl-2 and Bax alone

Question: And the “effect on rectification of Bcl-2 channel” value (Bcl-2 channel; 150 μM peptide, symmetrical 150 mM KCl, listed as death agonist peptide)?
Answer: imparted rectification

Question: And the “effect on conductance pattern of Bcl-2 channel” value (Bcl-2 channel)?
Answer: a simpler single channel conductance pattern

Question: What about the “effect on conductance pattern of Bcl-2 channel” value (Bcl-2 channel; listed as 11 mer Bax peptide) of the same sequence?
Answer: changes its characteristic conductance pattern in a progressive manner

Question: What about the “effect on ion selectivity of Bcl-2 channel” value (Bcl-2 channel) of the same sequence?
Answer: Cl^- selectivity

Question: And the “effect on ion selectivity of Bcl-2 channel” value (Bcl-2 channel; listed as death agonist peptide)?
Answer: reversed the ion selectivity of the Bcl-2 channel

Question: And the “cell death induction (known)” value (cell death)?
Answer: known to induce cell death

Question: And the channel forming activity [1]?
Answer: no channel forming activity

Question: And the “effect on activity of Bax channels” value (Bax channel)?
Answer: not affected
